Results as given in PMC11300593.
One block for each substance: values may come before it.

Columns and labels:
Experiment in all cases: dynamic light scattering; DLS at 20 mg/ml, 25 °C, with and without ammonium sulfate; dimer to monomers
[1] = biological target: 12-oxophytodienoate reductase 3 from tomato (SlOPR3), wild type (tomato) (UniProt Q9FEW9)
[2] = biological target: SlOPR3 variant R283E (tomato) (UniProt Q9FEW9)
[3] = biological target: SlOPR3 variant Y364P (tomato) (UniProt Q9FEW9)

stoichiometry N [1]: 2
Substance: 12-oxophytodienoate reductase 3 from tomato (SlOPR3), wild type (from UniProt Q9FEW9 1-396) (enzyme)

stoichiometry N [2]: 2
Substance: SlOPR3 variant R283E (from UniProt Q9FEW9 1-396) (enzyme)

stoichiometry N [3]: 2
Substance: SlOPR3 variant Y364P (from UniProt Q9FEW9 1-396) (enzyme)
